We go through one molecule from article PMC11586170, “Amino-functionalized vertically ordered mesoporous silica film on electrochemically polarized screen-printed carbon electrodes for the construction of gated electrochemical aptasensors and sensitive d”.

This series has as its target carcinoembryonic antigen (CEA) (UniProt P06731 35-685). The series can be described thus: electrochemical aptasensor (DPV, Fe(CN)6 3-/4- probe); aptamer immobilized on BSA-blocked NH2-VMSF/p-SPCE; linear range 100 fg/mL-100 ng/mL, LOD 24 fg/mL (not an affinity); aptamer immobilized in 0.01 M PBS pH 7.4 (4 C, 90 min), BSA block 0.1 wt%; CEA incubation 60 min; CEA binding buffer and temperature not in the material. The conditions noted are these: protein: commercial.

Sequence of carcinoembryonic antigen (CEA) (P06731 35-685): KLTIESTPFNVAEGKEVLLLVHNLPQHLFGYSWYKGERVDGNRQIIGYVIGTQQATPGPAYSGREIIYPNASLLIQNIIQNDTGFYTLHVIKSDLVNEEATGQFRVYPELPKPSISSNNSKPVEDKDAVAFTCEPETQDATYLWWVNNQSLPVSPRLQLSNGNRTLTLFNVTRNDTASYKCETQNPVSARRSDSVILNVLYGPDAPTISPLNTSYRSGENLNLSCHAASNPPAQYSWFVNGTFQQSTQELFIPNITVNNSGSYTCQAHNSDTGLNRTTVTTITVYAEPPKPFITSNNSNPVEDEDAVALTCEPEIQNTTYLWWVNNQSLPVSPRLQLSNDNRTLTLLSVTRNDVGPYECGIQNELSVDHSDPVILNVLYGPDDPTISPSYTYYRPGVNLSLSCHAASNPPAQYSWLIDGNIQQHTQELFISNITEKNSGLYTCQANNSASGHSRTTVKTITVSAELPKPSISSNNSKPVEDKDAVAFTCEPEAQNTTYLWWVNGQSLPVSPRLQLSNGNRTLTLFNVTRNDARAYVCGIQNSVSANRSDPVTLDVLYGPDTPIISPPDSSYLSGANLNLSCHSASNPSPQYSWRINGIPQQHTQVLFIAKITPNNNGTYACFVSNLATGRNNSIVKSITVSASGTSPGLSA

On to ATACAGCTTCAATT (ssDNA, 3'-NH2) [amino-modified CEA aptamer (Apt)], for which the binding result is reported as “binds”.
